Measurements from the supplement of paper PMC9112550, “Optimization of the antimicrobial peptide Bac7 by deep mutational scanning” (BMC Biology, 2022).

Tested on: Escherichia coli TOP10
Assay: shrunken log2 fold change of peptide-encoding DNA abundance (4.5 h post-induction vs induction); higher = less antimicrobial activity (less host growth inhibition)
Conditions: time post-induction: 4.5 h; library: site-saturation at positions 5, 18, 19, 20
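Note: peptides expressed intracellularly from a pBAD plasmid library in pooled LB shake-flask culture, induced with 0.3% L-arabinose, DNA abundance read by NGS, three biological replicates, DESeq2 with apeglm shrinkage.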

Sequence	shrunken log2 fold change
RRIRERPPRLPRPRPRPCSTPRP	-0.702
RRIRQRPPRLPRPRPRPVRPPRP	0.162
RRIRKRPPRLPRPRPRPMAGPRP	0.0722
RRIRRRPPRLPRPRPRPIFWPRP	0.821
RRIRFRPPRLPRPRPRPSSAPRP	-0.0032
RRIRKRPPRLPRPRPRPTGGPRP	0.13
RRIRMRPPRLPRPRPRPHTLPRP	-0.119
RRIRKRPPRLPRPRPRPWPRPRP	0.264
RRIRARPPRLPRPRPRPMIQPRP	0.0771
RRIRPRPPRLPRPRPRPMKEPRP	0.104
RRIRARPPRLPRPRPRPHPAPRP	0.478
RRIRLRPPRLPRPRPRPDWPPRP	-0.0804
RRIRQRPPRLPRPRPRPFEPPRP	-0.238
RRIRYRPPRLPRPRPRPDLFPRP	0.108
RRIRFRPPRLPRPRPRPPWDPRP	0.195
RRIRGRPPRLPRPRPRPPHCPRP	0.902
RRIRHRPPRLPRPRPRPQPNPRP	-0.168
RRIRWRPPRLPRPRPRPLMFPRP	-0.122
RRIRHRPPRLPRPRPRPLSQPRP	-0.0443
RRIRWRPPRLPRPRPRPSPIPRP	-0.0871
RRIRWRPPRLPRPRPRPKTPPRP	0.894
RRIRPRPPRLPRPRPRPAHMPRP	-0.0534
RRIRMRPPRLPRPRPRPMPCPRP	-0.00548
RRIRCRPPRLPRPRPRPRIQPRP	-0.196
RRIRCRPPRLPRPRPRPICPPRP	-0.148

Sequence	shrunken log2 fold change
RRIRGRPPRLPRPRPRPLNAPRP	0.908
RRIRARPPRLPRPRPRPICDPRP	0.497
RRIRDRPPRLPRPRPRPYEMPRP	-0.000896
RRIRCRPPRLPRPRPRPMCVPRP	-0.185
RRIRHRPPRLPRPRPRPCSTPRP	-0.337
RRIRQRPPRLPRPRPRPQDIPRP	0.0203
RRIRNRPPRLPRPRPRPAFNPRP	0.179
RRIRQRPPRLPRPRPRPHYVPRP	-0.123
RRIRQRPPRLPRPRPRPIQQPRP	-0.039
RRIRGRPPRLPRPRPRPSKPPRP	0.218
RRIRVRPPRLPRPRPRPMYAPRP	-0.17
RRIRQRPPRLPRPRPRPRNTPRP	-0.00635
RRIRRRPPRLPRPRPRPFHKPRP	0.0306
RRIRDRPPRLPRPRPRPWSPPRP	0.127
RRIRMRPPRLPRPRPRPPQYPRP	0.465
RRIRYRPPRLPRPRPRPSATPRP	-0.104
RRIRWRPPRLPRPRPRPQLGPRP	0.276
RRIRSRPPRLPRPRPRPDWNPRP	-0.298
RRIRGRPPRLPRPRPRPGDHPRP	0.333
RRIRHRPPRLPRPRPRPYFLPRP	-0.996
RRIRIRPPRLPRPRPRPIALPRP	-0.149
RRIRFRPPRLPRPRPRPSRSPRP	-0.104
RRIRFRPPRLPRPRPRPGKHPRP	-0.294
RRIRSRPPRLPRPRPRPWTNPRP	-0.0183
RRIRDRPPRLPRPRPRPVWYPRP	-0.134

Sequence	shrunken log2 fold change
RRIRLRPPRLPRPRPRPAEKPRP	-0.0786
RRIRVRPPRLPRPRPRPMSVPRP	0.0581
RRIRFRPPRLPRPRPRPDSIPRP	-0.0087
RRIRWRPPRLPRPRPRPDQLPRP	0.066
RRIRCRPPRLPRPRPRPCRAPRP	-0.0671
RRIRDRPPRLPRPRPRPQSEPRP	0.0514
RRIRWRPPRLPRPRPRPCIAPRP	0.00205
RRIRKRPPRLPRPRPRPAPNPRP	0.631
RRIRPRPPRLPRPRPRPGDPPRP	0.364
RRIRLRPPRLPRPRPRPEYFPRP	-0.0957
RRIRSRPPRLPRPRPRPEITPRP	-0.13
RRIRDRPPRLPRPRPRPRTEPRP	0.0904
RRIRTRPPRLPRPRPRPERNPRP	-0.201
RRIRIRPPRLPRPRPRPSTMPRP	-1.18
RRIRFRPPRLPRPRPRPFASPRP	-0.705
RRIRIRPPRLPRPRPRPHGWPRP	0.0102
RRIRPRPPRLPRPRPRPAQPPRP	0.732
RRIRARPPRLPRPRPRPRSHPRP	0.223
RRIRARPPRLPRPRPRPHLPPRP	0.0943
RRIRVRPPRLPRPRPRPVTWPRP	-0.14
RRIRWRPPRLPRPRPRPASRPRP	-0.00682
RRIRQRPPRLPRPRPRPCISPRP	-0.177
RRIRWRPPRLPRPRPRPDHAPRP	0.391
RRIRCRPPRLPRPRPRPQRAPRP	-0.012
RRIRQRPPRLPRPRPRPKWLPRP	0.0992

Sequence	shrunken log2 fold change
RRIRYRPPRLPRPRPRPKHDPRP	-0.648
RRIRWRPPRLPRPRPRPEKMPRP	-0.0237
RRIRYRPPRLPRPRPRPQPYPRP	-0.649
RRIRCRPPRLPRPRPRPPHNPRP	0.919
RRIRPRPPRLPRPRPRPARCPRP	0.67
RRIRDRPPRLPRPRPRPLWFPRP	-0.0862
RRIRARPPRLPRPRPRPADVPRP	0.118
RRIRHRPPRLPRPRPRPWYWPRP	-0.115
RRIRPRPPRLPRPRPRPFYVPRP	-0.459
RRIRVRPPRLPRPRPRPKKMPRP	-0.0803
RRIRPRPPRLPRPRPRPKYSPRP	-0.55
RRIRHRPPRLPRPRPRPVWYPRP	0.00395
RRIRMRPPRLPRPRPRPTPDPRP	1.39
RRIRNRPPRLPRPRPRPLTKPRP	0.164
RRIRARPPRLPRPRPRPCKNPRP	0.138
RRIRTRPPRLPRPRPRPILFPRP	-0.209
RRIRARPPRLPRPRPRPLFRPRP	0.881
RRIRERPPRLPRPRPRPNHFPRP	-0.799
RRIRERPPRLPRPRPRPKVEPRP	-0.0672
RRIRIRPPRLPRPRPRPCGSPRP	-0.0454
RRIRPRPPRLPRPRPRPDYGPRP	0.014
RRIRWRPPRLPRPRPRPKVIPRP	-0.0585
RRIRNRPPRLPRPRPRPDDYPRP	0.00129
RRIRGRPPRLPRPRPRPCMQPRP	-0.0315
RRIRLRPPRLPRPRPRPQNGPRP	-0.146

Sequence	shrunken log2 fold change
RRIRCRPPRLPRPRPRPCVLPRP	-0.7
RRIRIRPPRLPRPRPRPELYPRP	-0.0779
RRIRRRPPRLPRPRPRPEEWPRP	-0.00804
RRIRVRPPRLPRPRPRPYSTPRP	-0.00968
RRIRCRPPRLPRPRPRPKMKPRP	-0.269
RRIRLRPPRLPRPRPRPHYGPRP	-0.232
RRIRSRPPRLPRPRPRPYNEPRP	-0.554
RRIRPRPPRLPRPRPRPQSDPRP	0.0199
RRIRWRPPRLPRPRPRPKYHPRP	0.185
RRIRNRPPRLPRPRPRPNSCPRP	-0.137
RRIRWRPPRLPRPRPRPSPKPRP	0.403
RRIRVRPPRLPRPRPRPLRHPRP	0.288
RRIRVRPPRLPRPRPRPFCRPRP	-0.215
RRIRDRPPRLPRPRPRPERVPRP	0.388
RRIRGRPPRLPRPRPRPRTTPRP	1.06
RRIRRRPPRLPRPRPRPRAAPRP	0.833
RRIRVRPPRLPRPRPRPNQEPRP	-0.176
RRIRMRPPRLPRPRPRPDEFPRP	1.49
RRIRPRPPRLPRPRPRPWNRPRP	0.122
RRIRLRPPRLPRPRPRPFFWPRP	0.296
RRIRKRPPRLPRPRPRPFRSPRP	0.0452
RRIRTRPPRLPRPRPRPYVEPRP	-1.12
RRIRNRPPRLPRPRPRPPCKPRP	0.0896
RRIRGRPPRLPRPRPRPGRGPRP	0.773
RRIRERPPRLPRPRPRPWQLPRP	-0.072
